Positions of bridges follow the written chain, without caps; N, C: chain ends. Non-standard residues stand in square brackets, D forms with d. Groups on a side chain read outwards from the residue. Primed or numbered codes have the meaning given here. No end group written: not given here. *: point of attachment. DOTA = O=C(O)CN1CCN(CC(=O)O)CCN(CC(=O)*)CCN(CC(=O)O)CC1; Biotin = O=C1N[C@H]2[C@H](CS[C@H]2CCCCC(=O)*)N1; Butanoyl(4-(4-I-phenyl)) = O=C(CCCc1ccc(I)cc1)*; Butanoyl(4-(4-MePh)) = Cc1ccc(CCCC(=O)*)cc1; Lys(N3) = [N-]=[N+]=NCCCC[C@H](N)C(=O)O; FB = fluorobenzaldehyde oxime; PEG10′ = PEG spacer, 10 units; PEG3′ = PEG spacer, 3 units; PEG7′ = PEG linker, 7 units; AO = aminooxy group, NO*; Pra = C#CC[C@H](N)C(=O)O
Legend:
[1] = target: CD-1 mouse plasma proteins; experiment: plasma protein binding, equilibrium dialysis, LC-MS/MS; control
[2] = target: human plasma proteins; experiment: as above
[3] = target: His-tagged FOLR1 human recombinant protein (11241-H08H, SinoBiological) (human) (UniProt P15328); experiment: ELISA
[4] = target: His-tagged FOLR1 human recombinant protein (11241-H08H, SinoBiological) (human) (UniProt P15328); experiment: ELISA; remark: listed apart in the source
[5] = target: mouse recombinant FOLR1 (rMuFOLR1) (mouse, UniProt P35846); experiment: ELISA
[6] = target: His-tagged FOLR1 human recombinant protein (11241-H08H, SinoBiological) (human) (UniProt P15328); experiment: ELISA, linker screen
[7] = target: His-tagged FOLR1 human recombinant protein (11241-H08H, SinoBiological) (human) (UniProt P15328); experiment: ELISA, against folate as reference
[8] = target: FOLR1 on OVCAR3 cells (human ovarian adenocarcinoma, FOLR1 (+) cell line) (human) (UniProt P15328); experiment: flow cytometry on OVCAR3 cells, no folate
[9] = target: FOLR1 on OVCAR3 cells (human ovarian adenocarcinoma, FOLR1 (+) cell line) (human) (UniProt P15328); experiment: flow cytometry on OVCAR3 cells, with 0.1 µg/mL free folate as competitor
[10] = target: CD-1 mouse plasma proteins; experiment: plasma protein binding, equilibrium dialysis, LC-MS/MS
[11] = target: human plasma proteins; experiment: as above
[12] = target: CD-1 mouse plasma proteins; experiment: plasma protein binding; value marked (FB)
[13] = target: human plasma proteins; experiment: plasma protein binding; value marked (FB)
[14] = target: FOLR1 on OVCAR3 cells (human ovarian adenocarcinoma, FOLR1 (+) cell line) (human) (UniProt P15328)

Row | Molecule | EC50 [3] | Plasma % Bound [10] | Plasma % Bound [11] | also measured
1 | Octreotide Acetate (peptide) | – | – | – | Plasma % Bound [1]: 62.4%; Plasma % Bound [2]: 59.4%
2 | [Pra][dD][dE][dR][dY][dT][Lys(N3)] (triazole N-C; also: conjugated to folate, attachment not said) [folate-deryt (SEQ ID NO:20) heterobiligand (construct not specified)] | – | – | – | EC50 [6]: 0.28 nM
3 | {Fol-PEG7′}-[dH][dS][dH][dT][dA] (also: triazole macrocycle (Pra/Az4 click), ends not placed) [Folate-PEG7-hshta heterobiligand] | – | – | – | EC50 [6]: 1 nM
4 | Fol-P[dH][dS][dH][dT][dA] (not fully specified (residue 1, C-terminus, bridges)) [Folate-Pro-hshta heterobiligand] | – | – | – | EC50 [6]: 0.9 nM
5 | Fol-G[dH][dS][dH][dT][dA] (not fully specified (residue 1, C-terminus, bridges)) [Folate-Gly-hshta heterobiligand] | – | – | – | EC50 [6]: 0.9 nM
6 | Fol-[dH][dS][dH][dT][dA]K(Butanoyl(4-(4-MePh)))K(DOTA) (not fully specified (residue 5, bridges); printed as folate-hshta-PEG3-Lys(MPBA)-Lys(DOTA)) [Compound #2809, folate-hshta-PEG3-Lys(MPBA)-Lys(DOTA) (SEQ ID NO:6)] | – | 92.1% | 83.3% | –
7 | Fol-[dH][dS][dH][dT][dA]K(FB) (not fully specified (residue 5, bridges)) [Compound #2, Fol-hshta-PEG3-Lys(FB)] | – | 20.2% | 43% | –
8 | Fol-[dH][dS][dH][dT][dA]K(DOTA) (not fully specified (residue 5, bridges); printed as folate-hshta-PEG3-Lys(DOTA)) [Compound #1189, Fol-hshta-PEG3-Lys(DOTA)] | – | 29.5% | 46% | –
9 | [dH][dS][dH][dT][dA]GFK(DOTA) (not fully specified (residue 5, N-terminus, bridges); printed as folate-hshta-Gly-Phe-Lys(DOTA)) [Compound #7327, folate-hshta-Gly-Phe-Lys(DOTA) (SEQ ID NO:6)] | – | 40.9% | 40.3% | –
10 | Fol-[dH][dS][dH][dT][dA]K(Butanoyl(4-(4-MePh)))GFK(DOTA) (not fully specified (residue 5, bridges)) [Compound #6305, folate-hshta-Lys(MPBA)-Gly-Phe-Lys(DOTA) (SEQ ID NO:6)] | – | 96.3% | 98.3% | –
11 | Fol-[dH][dS][dH][dT][dA]K(Butanoyl(4-(4-I-phenyl)))GFK(DOTA) (not fully specified (residue 5, bridges)) [Compound #1307, folate-hshta-Lys(IPBA)-Gly-Phe-Lys(DOTA) (SEQ ID NO:6)] | – | 99.6% | 99.5% | –
12 | Fol-[dH][dS][dH][dT][dA]K(Butanoyl(4-(4-I-phenyl)))MVK(DOTA) (not fully specified (residue 5, bridges)) [Compound #1306, folate-hshta-Lys(IPBA)-M-V-Lys(DOTA) (SEQ ID NO:6)] | – | 97.1% | 97.3% | –
13 | Fol-[dH][dS][dH][dT][dA]K(Butanoyl(4-(4-MePh)))GFK([PEG3′-DOTA]) (not fully specified (residue 5, bridges)) [Compound #3302, Fol-hshta-Lys(4-MPBA)-Gly-Phe-Lys(PEG3-DOTA)] | – | 96.5% | 94.9% | –
14 | Fol-[dH][dS][dH][dT][dA]GFK(DOTA) (not fully specified (residue 5, bridges)) [Compound #6307, Fol-hshta-PEG3-Gly-Phe-Lys(DOTA)] | – | 40.6% | 41.3% | –
15 | Fol-[dH][dS][dH][dT][dA]GFK(AO) (not fully specified (residue 5, bridges); printed as Fol-hshta-Gly-Phe-Lys(AO)) [Compound #3303, Fol-hshta-Gly-Phe-Lys(AO)] | – | – | – | Plasma % Bound [12]: 75.5%; Plasma % Bound [13]: 81%
16 | Fol-[dH][dS][dH][dT][dA] (not fully specified (C-terminus, bridges); also: DyLight 650 label, site not given here) [DyLight650-labeled folate-hshta (SEQ ID NO:6) Nterm heterobiligand] | – | – | – | percentage of positively stained cells after acid wash (flow cytometry) [14]: 54.2%

More lines, main results first:

Row | EC50 [3] | Plasma % Bound [10] | Plasma % Bound [11] | Molecule | also measured
17 | > 10000 nM | – | – | [Pra][dK][dY][dE][dE][dT][Lys(N3)] (triazole N-C) [kyeet (SEQ ID NO:9) macrocyclic peptide ligand (PCC)] | –
18 | 0.149 nM | – | – | [dK][dY][dE][dE][dT][Lys(N3)] (triazole N-C; not fully specified (N-terminus); also: folate joined through PEG linker and Tz (triazole) attachment) [folate-kyeet Tz heterobiligand] | –
19 | 3920 nM | – | – | [Pra][dH][dS][dH][dT][dA][Lys(N3)] (triazole N-C; also: further groups not given here) [hshta (SEQ ID NO:6) macrocyclic peptide ligand (PCC)] | EC50 [4]: 3400 nM; EC50 [5]: 2100 nM
20 | 0.107 nM | – | – | [dH][dS][dH][dT][dA][Lys(N3)] (triazole N-C; not fully specified (N-terminus); also: folate joined through PEG linker and Tz (triazole) attachment) [folate-hshta Tz heterobiligand] | –
21 | 0.065 nM | – | – | Fol-[dH][dS][dH][dT][dA][PEG10′][PEG10′]K(Biotin) (not fully specified (bridges); printed as folate-hshta) [folate-hshta (SEQ ID NO:6) NTerm heterobiligand, Folate-hshta-PEG10-PEG10-K(Biotin)] | EC50 [4]: 0.35 nM; EC50 [5]: 0.33 nM; EC50 [6]: 0.18 nM; fold greater affinity than folate itself [7]: 30 fold; percentage of OVCAR3 cells binding [8]: 76.6%; percentage of OVCAR3 cells binding [9]: 57%
22 | 0.11 nM | – | – | Fol-[dH][dS][dH][dT][dA]K(Butanoyl(4-(4-MePh)))[PEG10′][PEG10′]K(Biotin) (not fully specified (some residues, bridges); printed as Folate-hshta-MPBA) [Folate-hshta-MPBA: folate-hshta with the tag Lys(4-MPBA)-PEG10-PEG10-Lys(Biotin)] | –
23 | 0.098 nM | – | – | Fol-[dH][dS][dH][dT][dA]K(DOTA)[PEG10′][PEG10′]K(Biotin) (not fully specified (some residues, bridges); printed as Folate-hshta-DOTA) [Folate-hshta-DOTA: folate-hshta with the tag Lys(DOTA)-PEG10-PEG10-Lys(Biotin)] | –
24 | 0.16 nM | – | – | K[dD][dE][dR][dY][dT] (not fully specified (residue 1, C-terminus, bridges); also: macrocycle (click Pra/Az4 or amide variant), ends not placed) [Lys(PEG3-Folate)-deryt heterobiligand] | –
25 | 0.27 nM | – | – | [dD][dE][dR][dY][dT][Lys(N3)] (triazole N-C; not fully specified (N-terminus); printed as Pra(Az4-PEG3-folate)-deryt; also: N-terminal Pra joined by Tz (triazole) linker to Az4-PEG3-folate) [Pra(Az4-PEG3-folate)-deryt heterobiligand] | –
26 | 10000 nM | – | – | [Pra][dD][dE][dR][dY][dT][Lys(N3)] (triazole N-C) [deryt (SEQ ID NO:20) macrocyclic peptide ligand (PCC)] | –

Reference: patent US20240180856A1, “COMPOSITIONS, […] SYSTEMS, AND METHODS USEFUL IN TUMOR […]” (published 2024)
